*1 amine or outer side, *2 acyl side, *3 side chain or, on linkers, in order; H or OH if unused. Primed or numbered codes have the meaning given here. [ ]: non-standard residue; d: D form. The star is where a group is joined. Dabcyl′ = CN(C)c1ccc(/N=N/c2ccc(C(=O)*)cc2)cc1; Dnp = O=[N+]([O-])c1ccc(*)c([N+](=O)[O-])c1; C(Me) = CSC[C@H](N[*:1])C(=O)[*:2]; fluorescein = fluorescein label
T1: human Gelatinase-A (human, UniProt P08253 110-660, limits assumed)
T1 sequence (looked up): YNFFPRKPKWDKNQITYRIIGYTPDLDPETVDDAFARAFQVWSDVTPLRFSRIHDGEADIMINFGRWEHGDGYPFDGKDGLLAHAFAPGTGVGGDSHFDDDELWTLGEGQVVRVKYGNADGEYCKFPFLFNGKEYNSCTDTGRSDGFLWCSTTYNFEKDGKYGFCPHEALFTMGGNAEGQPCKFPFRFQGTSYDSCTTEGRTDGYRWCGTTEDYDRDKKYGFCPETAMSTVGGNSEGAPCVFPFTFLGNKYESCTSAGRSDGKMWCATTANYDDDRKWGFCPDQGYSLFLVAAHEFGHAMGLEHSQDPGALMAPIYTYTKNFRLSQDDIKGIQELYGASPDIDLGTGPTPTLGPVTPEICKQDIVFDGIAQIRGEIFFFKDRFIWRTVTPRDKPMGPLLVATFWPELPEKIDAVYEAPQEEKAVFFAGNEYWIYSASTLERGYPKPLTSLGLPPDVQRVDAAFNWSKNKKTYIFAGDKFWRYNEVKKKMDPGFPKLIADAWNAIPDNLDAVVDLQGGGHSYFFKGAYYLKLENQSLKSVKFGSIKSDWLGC

T2: collagenase 1 (UniProt P03956 100-469, limits assumed)
T2 sequence (looked up): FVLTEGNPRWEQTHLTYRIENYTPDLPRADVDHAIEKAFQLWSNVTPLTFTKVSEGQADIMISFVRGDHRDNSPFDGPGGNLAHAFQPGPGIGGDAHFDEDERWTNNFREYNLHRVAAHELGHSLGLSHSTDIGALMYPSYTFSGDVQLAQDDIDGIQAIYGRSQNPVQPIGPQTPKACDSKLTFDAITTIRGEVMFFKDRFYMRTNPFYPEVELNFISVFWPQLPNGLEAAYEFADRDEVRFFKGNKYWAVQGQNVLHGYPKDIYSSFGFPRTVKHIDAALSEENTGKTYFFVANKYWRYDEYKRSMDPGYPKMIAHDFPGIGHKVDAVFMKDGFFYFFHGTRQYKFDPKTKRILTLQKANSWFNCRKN

B1: Dnp-GPLPLHGC(Me)-NH2 (peptide)
peptide: Dnp-GPLPLHG[C(Me)]-NH2
SMILES: CSC[C@H](NC(=O)CNC(=O)[C@H](Cc1c[nH]cn1)NC(=O)[C@H](CC(C)C)NC(=O)[C@@H]1CCCN1C(=O)[C@H](CC(C)C)NC(=O)[C@@H]1CCCN1C(=O)CNc1ccc([N+](=O)[O-])cc1[N+](=O)[O-])C(N)=O
B2: Dnp-GPLGLHVC(Me)-NH2 (peptide)
peptide: Dnp-GPLGLHV[C(Me)]-NH2
SMILES: CSC[C@H](NC(=O)[C@@H](NC(=O)[C@H](Cc1c[nH]cn1)NC(=O)[C@H](CC(C)C)NC(=O)CNC(=O)[C@H](CC(C)C)NC(=O)[C@@H]1CCCN1C(=O)CNc1ccc([N+](=O)[O-])cc1[N+](=O)[O-])C(C)C)C(N)=O
B3: Dnp-GPHPFRG-NH2 (peptide)
peptide: Dnp-GPHPFRG-NH2
SMILES: N=C(N)NCCC[C@H](NC(=O)[C@H](Cc1ccccc1)NC(=O)[C@@H]1CCCN1C(=O)[C@H](Cc1c[nH]cn1)NC(=O)[C@@H]1CCCN1C(=O)CNc1ccc([N+](=O)[O-])cc1[N+](=O)[O-])C(=O)NCC(N)=O
B4: Dnp-GPKGITS-NH2 (peptide)
peptide: Dnp-GPKGITS-NH2
SMILES: CC[C@H](C)[C@H](NC(=O)CNC(=O)[C@H](CCCCN)NC(=O)[C@@H]1CCCN1C(=O)CNc1ccc([N+](=O)[O-])cc1[N+](=O)[O-])C(=O)N[C@H](C(=O)N[C@@H](CO)C(N)=O)[C@@H](C)O
B5: Dnp-GPAPLHVC(Me)-NH2 (peptide)
peptide: Dnp-GPAPLHV[C(Me)]-NH2
SMILES: CSC[C@H](NC(=O)[C@@H](NC(=O)[C@H](Cc1c[nH]cn1)NC(=O)[C@H](CC(C)C)NC(=O)[C@@H]1CCCN1C(=O)[C@H](C)NC(=O)[C@@H]1CCCN1C(=O)CNc1ccc([N+](=O)[O-])cc1[N+](=O)[O-])C(C)C)C(N)=O
B6: Dnp-GPLQFRG-NH2 (peptide)
peptide: Dnp-GPLQFRG-NH2
SMILES: CC(C)C[C@H](NC(=O)[C@@H]1CCCN1C(=O)CNc1ccc([N+](=O)[O-])cc1[N+](=O)[O-])C(=O)N[C@@H](CCC(N)=O)C(=O)N[C@@H](Cc1ccccc1)C(=O)N[C@@H](CCCNC(=N)N)C(=O)NCC(N)=O
B7: Dnp-GPSGIHL-NH2 (peptide)
peptide: Dnp-GPSGIHL-NH2
SMILES: CC[C@H](C)[C@H](NC(=O)CNC(=O)[C@H](CO)NC(=O)[C@@H]1CCCN1C(=O)CNc1ccc([N+](=O)[O-])cc1[N+](=O)[O-])C(=O)N[C@@H](Cc1c[nH]cn1)C(=O)N[C@@H](CC(C)C)C(N)=O
B8: Dnp-GPVNLHG-NH2 (peptide)
peptide: Dnp-GPVNLHG-NH2
SMILES: CC(C)C[C@H](NC(=O)[C@H](CC(N)=O)NC(=O)[C@@H](NC(=O)[C@@H]1CCCN1C(=O)CNc1ccc([N+](=O)[O-])cc1[N+](=O)[O-])C(C)C)C(=O)N[C@@H](Cc1c[nH]cn1)C(=O)NCC(N)=O
B9: Dnp-GPSGIHV-NH2 (peptide)
peptide: Dnp-GPSGIHV-NH2
SMILES: CC[C@H](C)[C@H](NC(=O)CNC(=O)[C@H](CO)NC(=O)[C@@H]1CCCN1C(=O)CNc1ccc([N+](=O)[O-])cc1[N+](=O)[O-])C(=O)N[C@@H](Cc1c[nH]cn1)C(=O)N[C@H](C(N)=O)C(C)C
B10: Dnp-GPKGMRG-NH2 (peptide)
peptide: Dnp-GPKGMRG-NH2
SMILES: CSCC[C@H](NC(=O)CNC(=O)[C@H](CCCCN)NC(=O)[C@@H]1CCCN1C(=O)CNc1ccc([N+](=O)[O-])cc1[N+](=O)[O-])C(=O)N[C@@H](CCCNC(=N)N)C(=O)NCC(N)=O
B11: Dnp-GPYGMRA-NH2 (peptide)
peptide: Dnp-GPYGMRA-NH2
SMILES: CSCC[C@H](NC(=O)CNC(=O)[C@H](Cc1ccc(O)cc1)NC(=O)[C@@H]1CCCN1C(=O)CNc1ccc([N+](=O)[O-])cc1[N+](=O)[O-])C(=O)N[C@@H](CCCNC(=N)N)C(=O)N[C@@H](C)C(N)=O
B12: Dnp-GPLSFQG-NH2 (peptide)
peptide: Dnp-GPLSFQG-NH2
SMILES: CC(C)C[C@H](NC(=O)[C@@H]1CCCN1C(=O)CNc1ccc([N+](=O)[O-])cc1[N+](=O)[O-])C(=O)N[C@@H](CO)C(=O)N[C@@H](Cc1ccccc1)C(=O)N[C@@H](CCC(N)=O)C(=O)NCC(N)=O
B13: Dabcyl-GPHPFRGC(Flu)-NH2 (peptide)
peptide: {Dabcyl′}-GPHPFRGC(fluorescein)-NH2
B14: Dnp-GPLSIQD-NH2 (peptide)
peptide: Dnp-GPLSIQD-NH2
SMILES: CC[C@H](C)[C@H](NC(=O)[C@H](CO)NC(=O)[C@H](CC(C)C)NC(=O)[C@@H]1CCCN1C(=O)CNc1ccc([N+](=O)[O-])cc1[N+](=O)[O-])C(=O)N[C@@H](CCC(N)=O)C(=O)N[C@@H](CC(=O)O)C(N)=O
B15: Dnp-VTPYNMRG-NH2 (peptide)
peptide: Dnp-VTPYNMRG-NH2
SMILES: CSCC[C@H](NC(=O)[C@H](CC(N)=O)NC(=O)[C@H](Cc1ccc(O)cc1)NC(=O)[C@@H]1CCCN1C(=O)[C@@H](NC(=O)[C@@H](Nc1ccc([N+](=O)[O-])cc1[N+](=O)[O-])C(C)C)[C@@H](C)O)C(=O)N[C@@H](CCCNC(=N)N)C(=O)NCC(N)=O

Experiments:
Assay in all cases: cell-based or functional assay
gelatinase B [1] = molecular target: T3, gelatinase B (UniProt P14780 107-707, limits assumed)
human Gelatinase-A [2] = molecular target: T1, human Gelatinase-A
stromelysin 1 [3] = molecular target: T4, stromelysin 1 (UniProt P08254 100-477, limits assumed)
collagenase 1 [4] = molecular target: T2, collagenase 1
gelatinase B [5] = molecular target: T3, gelatinase B; remark: listed apart in the source
human Gelatinase-A [6] = molecular target: T1, human Gelatinase-A; remark: listed apart in the source
stromelysin 1 [7] = molecular target: T4, stromelysin 1; remark: listed apart in the source
collagenase 1 [8] = molecular target: T2, collagenase 1; remark: listed apart in the source

T3 sequence (P14780 107-707 limits assumed): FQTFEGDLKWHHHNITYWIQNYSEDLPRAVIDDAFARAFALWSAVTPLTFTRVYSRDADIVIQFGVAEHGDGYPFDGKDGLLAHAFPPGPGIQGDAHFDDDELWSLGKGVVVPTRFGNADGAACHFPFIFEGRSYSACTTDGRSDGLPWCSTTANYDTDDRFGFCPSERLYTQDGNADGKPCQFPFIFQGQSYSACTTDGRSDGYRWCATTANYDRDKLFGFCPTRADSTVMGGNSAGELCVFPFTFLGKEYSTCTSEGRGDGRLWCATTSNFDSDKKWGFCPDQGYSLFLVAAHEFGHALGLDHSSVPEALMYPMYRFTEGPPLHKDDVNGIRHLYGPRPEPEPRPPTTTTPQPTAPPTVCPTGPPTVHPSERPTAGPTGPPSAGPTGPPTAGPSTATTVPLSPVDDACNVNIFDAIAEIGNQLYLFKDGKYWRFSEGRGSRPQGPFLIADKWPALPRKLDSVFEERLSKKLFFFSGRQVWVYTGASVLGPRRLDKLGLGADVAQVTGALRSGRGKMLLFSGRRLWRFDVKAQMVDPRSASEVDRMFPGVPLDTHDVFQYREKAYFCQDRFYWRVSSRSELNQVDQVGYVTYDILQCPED
T4 sequence (P08254 100-477 limits assumed): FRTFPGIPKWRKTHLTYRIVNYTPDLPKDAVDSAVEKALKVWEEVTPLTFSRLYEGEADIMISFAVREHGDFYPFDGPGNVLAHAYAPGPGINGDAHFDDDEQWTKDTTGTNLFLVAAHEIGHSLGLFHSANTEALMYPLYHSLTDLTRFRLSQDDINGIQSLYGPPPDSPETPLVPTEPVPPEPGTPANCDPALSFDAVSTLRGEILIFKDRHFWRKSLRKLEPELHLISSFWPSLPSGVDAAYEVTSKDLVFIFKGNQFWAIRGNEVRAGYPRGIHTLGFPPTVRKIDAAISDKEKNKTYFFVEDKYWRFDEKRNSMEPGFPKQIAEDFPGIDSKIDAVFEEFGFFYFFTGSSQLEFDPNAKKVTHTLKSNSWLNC

Binder | Selectivity v. Coll-3 (gelatinase B [1]) [unitless] | Selectivity v. Coll-3 (human Gelatinase-A [2]) [unitless] | Selectivity v. Coll-3 (stromelysin 1 [3]) [unitless] | Selectivity v. Coll-3 (collagenase 1 [4]) [unitless] | Selectivity v Col-3 (gelatinase B [5]) [unitless] | Selectivity v Col-3, + Gel (gelatinase B [5]) [unitless] | Selectivity v Col-3 (human Gelatinase-A [6]) [unitless] | Selectivity v Col-3 (stromelysin 1 [7]) [unitless] | Selectivity v Col-3, + Gel (stromelysin 1 [7]) [unitless] | Selectivity v Col-3 (collagenase 1 [8]) [unitless] | Selectivity v Col-3, + Gel (collagenase 1 [8]) [unitless]
B1 | 10 | 20 | 986 | 36 |  |  |  |  |  |  | 
B2 | 26 | 32 | 12700 | 182 |  |  |  |  |  |  | 
B3 | 8 | 17 | 2300 | 3350 |  |  |  |  |  |  | 
B4 | 2 | 6 | 37000 | 548 |  |  |  |  |  |  | 
B5 | 11 | 12 | 264 | 126 |  |  |  |  |  |  | 
B6 | 7 | 32 | 700 | 3680 |  |  |  |  |  |  | 
B7 | 6 | 8 | 2040 | 3440 |  |  |  |  |  |  | 
B8 | 11 | 25 | 1260 | 459 |  |  |  |  |  |  | 
B9 | 17 | 10 | 35700 | 1430 |  |  |  |  |  |  | 
B10 | 3 | 7 | 13200 | 1570 |  |  |  |  |  |  | 
B11 | 6 | 16 | 404 | 212 |  |  |  |  |  |  | 
B12 | 5 | 21 | 191 | 688 |  |  |  |  |  |  | 
B13 |  |  |  |  | 2.6 | 11.6 | 14.8 | 43.9 | 53.8 | 87.8 | 168
B14 | 6 | 65 | 590 | 45 |  |  |  |  |  |  | 
B15 | 4 | 31 | 1000 | 39 |  |  |  |  |  |  | 

— US20030229005A1 (BIOZYME, published 2003)
